For experiment [1], the target named is T1, APDTRPAPG (synthetic MUC1 epitope peptide without N-terminal biotin or linker).
T1 chain: APDTRPAPG
The experiment in a line: crystal structure.

Experiment [2] has as its target T2, biotin-GGS-APDTRPAPG (N-terminally biotinylated synthetic MUC1 VNTR peptide).
T2 chain: Biotin-GGSAPDTRPAPG
Briefly: SPR. For orientation: Surface plasmon resonance follows binding to a sensor surface in real time, without labels.

Where no end group is shown, it is not given here. The star is where a group is joined. Biotin = O=C1N[C@H]2[C@H](CS[C@H]2CCCCC(=O)*)N1

Data on one molecule can be found in doi:10.1101/2023.07.05.547778 (bioRxiv, 2023).

The term Kd denotes the equilibrium constant for the complex coming apart.

B1: recombinant 139H2 Fab fragment (Fab, V domains shown)
VH: QVQLQQSGAELVKPGASVKLSCKASGYTFTNYYMYWVLQRPGQGLEWIGEINPSNGGTTFNEKFKNKATLTVDKSSSTAYMQLNSLTSEDSAVYYCTRSRYGNYVNYGMDYWGQGTSVTVSS
VL: DIVMSQSPSSLAVSVGEKVTMSCKSSQSLLYSNTQKNYLAWYQQKPGQSPKLLIYWASTRESGVPDRFTGSGSGTDFTLTISSVKAENLAVYYCQQYYRYPPTFGGGTKLELK
Regarding B1, the binding result in experiment [1] is given as “binds”. In experiment [2], this molecule came in with a Kd of 4.5 µM.
